The supplement of paper PMC7877785
± gives the uncertainty stated by the source.

Assay: self-splicing fitness, log relative to wild type (ln ratio); higher = more splicing; Tetrahymena group I intron in knt gene, E. coli kanamycin selection, DiMSum; sequences stand for … in CUCUCU…GGAGGGAAAAGUUAUCAGGCAUGCACCUGGUAGCUAGUCUUUAAACCAAUAGAUUGCAUCGGUUUAAAAGGCAAGACCGUCAAAUUGCGGGAAAGGGGUCAACAGCCGUUCAGUACCAAGUCUCAGGGGAAACUUUGAGAUGGCCUUGCAAAGGGUAUGGUAAUAAGCUGACGGACAUGGUCCUAACCACGCAGCCAAGUCCUAAGUCAACAGAUCUUCUGUUGAUAUGGAUGCAGUUCACAGACUAAAUGUCGGUCGGGGAAGAUGUAUUCUUCUCAUAAGAUAUAGUCGGACCUCUCCUUAAUGGGAGCUAGCGGAUGAAGUGAUGCAACACUGGAGCCGCUGGGAACUAAUUUGUAUGCGAAAGUAUAUUGAUUAGUUUUGGAGUACUCGUGGUCG
In short: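 Colonies from six replicate transformations of E. coli BL21(DE3) were pooled and amplicon-sequenced on an Illumina HiSeq 2500. The library placed an intron with all eight P1ex-region nucleotides randomised inside the knt kanamycin-resistance gene on pET-22b(+), and cells grew overnight at 37°C or 30°C on LB agar with or without 25 μg/mL kanamycin (plus 100 μg/mL carbenicillin, 50 μM IPTG, 0.2% rhamnose). Fitness is the DiMSum error-weighted combination of wild-type-normalised replicate fold changes, kanamycin versus none.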

| Sequence | self-splicing fitness (ln) (30 °C) | self-splicing fitness (ln) (37 °C) |
| --- | --- | --- |
| AAUAAGCAAUAUUACGACAA | -0.398 ± 0.13 | -0.323 ± 0.12 |
| AAUAAGCAAUAUUACGACGU | 0.233 ± 0.057 | 0.618 ± 0.072 |
| AAUAAGCAAUAUUACGAUAC | -2.25 ± 0.25 | -1.44 ± 0.44 |
| AAUAAGCAAUAUUACGAUUG | -2.35 ± 0.18 | -1.91 ± 0.23 |
| AAUAAGCAAUAUUACGCAAA | -1.62 ± 0.23 | -2.05 ± 0.25 |
| AAUAAGCAAUAUUACGCUAA | -2.46 ± 0.16 | -0.891 ± 0.13 |
| AAUAAGCAAUAUUACGCUAG | -1.79 ± 0.18 | -1.17 ± 0.17 |
| AAUAAGCAAUAUUACGCUGC | -3.69 ± 0.3 | -2.67 ± 0.38 |
| AAUAAGCAAUAUUACGCUUA | -3.19 ± 0.26 | -1.74 ± 0.22 |
| AAUAAGCAAUAUUACGGCAU | 0.0296 ± 0.085 | -0.0272 ± 0.097 |
| AAUAAGCAAUAUUACGGGUA | -2.49 ± 0.21 | -1.32 ± 0.14 |
| AAUAAGCAAUAUUACGGGUC | -3.18 ± 0.2 | -2.53 ± 0.22 |
| AAUAAGCAAUAUUACGGUUC | -2.72 ± 0.14 | -1.77 ± 0.15 |
| AAUAAGCAAUAUUACGUAAU | -1.38 ± 0.1 | -0.587 ± 0.13 |
| AAUAAGCAAUAUUACGUAUA | -1.76 ± 0.12 | -1.56 ± 0.13 |
| AAUAAGCAAUAUUACGUCGA | -1.38 ± 0.099 | -0.488 ± 0.12 |
| AAUAAGCAAUAUUACGUCUG | -1.59 ± 0.11 | -0.973 ± 0.11 |
| AAUAAGCAAUAUUACGUGAA | -2.46 ± 0.16 | -0.674 ± 0.13 |
| AAUAAGCAAUAUUACGUUCC | -1.96 ± 0.14 | -1.48 ± 0.18 |
| AAUAAGCAAUAUUACGUUGC | -3.52 ± 0.19 | -2.53 ± 0.2 |
| AAUAAGCAAUAUUACGUUUA | -2.05 ± 0.084 | -1.3 ± 0.096 |
| AAUCAGCAAUAUUACGAAAU | -0.801 ± 0.066 | 0.368 ± 0.092 |
| AAUCAGCAAUAUUACGACAA | -0.758 ± 0.12 | 0.189 ± 0.14 |
| AAUCAGCAAUAUUACGAGUG | -0.769 ± 0.053 | -0.281 ± 0.08 |

| Sequence | self-splicing fitness (ln) (30 °C) | self-splicing fitness (ln) (37 °C) |
| --- | --- | --- |
| AAUCAGCAAUAUUACGAUCG | -0.0405 ± 0.063 | 0.448 ± 0.084 |
| AAUCAGCAAUAUUACGCCUU | 0.109 ± 0.082 | 0.0213 ± 0.1 |
| AAUCAGCAAUAUUACGCGCC | -0.953 ± 0.12 | -0.532 ± 0.13 |
| AAUCAGCAAUAUUACGCUCC | -1.54 ± 0.14 | -0.129 ± 0.11 |
| AAUCAGCAAUAUUACGCUUU | -0.193 ± 0.067 | 0.378 ± 0.1 |
| AAUCAGCAAUAUUACGGCGG | -1.05 ± 0.1 | 0.206 ± 0.14 |
| AAUCAGCAAUAUUACGGGUA | -0.368 ± 0.071 | 0.17 ± 0.081 |
| AAUCAGCAAUAUUACGGGUU | -2.48 ± 0.12 | -2.02 ± 0.13 |
| AAUCAGCAAUAUUACGGUGC | -0.892 ± 0.072 | -0.189 ± 0.082 |
| AAUCAGCAAUAUUACGGUGG | -1.14 ± 0.056 | -0.718 ± 0.076 |
| AAUCAGCAAUAUUACGUAUA | -0.574 ± 0.066 | 0.0946 ± 0.087 |
| AAUCAGCAAUAUUACGUAUU | -1.17 ± 0.053 | -0.697 ± 0.061 |
| AAUCAGCAAUAUUACGUGCU | -3.39 ± 0.17 | -2.56 ± 0.17 |
| AAUCAGCAAUAUUACGUUUG | -2.11 ± 0.092 | -1.94 ± 0.13 |
| AAUGAGCAAUAUUACGAAUU | -2.71 ± 0.28 | -2.3 ± 0.39 |
| AAUGAGCAAUAUUACGACCU | -0.757 ± 0.24 | -0.257 ± 0.41 |
| AAUGAGCAAUAUUACGACUU | -0.422 ± 0.091 | 0.263 ± 0.1 |
| AAUGAGCAAUAUUACGAGCG | -3.49 ± 0.38 | -1.56 ± 0.3 |
| AAUGAGCAAUAUUACGAGGA | -2.86 ± 0.36 | -2.08 ± 0.36 |
| AAUGAGCAAUAUUACGAUAC | -4 ± 0.33 | – |
| AAUGAGCAAUAUUACGAUUG | -1.99 ± 0.38 | -1.14 ± 0.26 |
| AAUGAGCAAUAUUACGCAAU | -2.49 ± 0.23 | -2.25 ± 0.25 |
| AAUGAGCAAUAUUACGCAUA | -2.52 ± 0.19 | -2.42 ± 0.24 |
| AAUGAGCAAUAUUACGCUGG | -3.22 ± 0.2 | -2.08 ± 0.25 |

| Sequence | self-splicing fitness (ln) (30 °C) | self-splicing fitness (ln) (37 °C) |
| --- | --- | --- |
| AAUGAGCAAUAUUACGGCGG | -4.11 ± 0.34 | -2.69 ± 0.29 |
| AAUGAGCAAUAUUACGGCGU | -1.43 ± 0.07 | -0.25 ± 0.097 |
| AAUGAGCAAUAUUACGGGAG | -2.87 ± 0.23 | -3.53 ± 0.42 |
| AAUGAGCAAUAUUACGGGUU | -2.36 ± 0.14 | -2.13 ± 0.2 |
| AAUGAGCAAUAUUACGUACC | – | -2.85 ± 0.27 |
| AAUGAGCAAUAUUACGUCAG | -1.81 ± 0.45 | -2.32 ± 0.42 |
| AAUGAGCAAUAUUACGUCAU | -2.26 ± 0.2 | -1.02 ± 0.18 |
| AAUGAGCAAUAUUACGUCGU | -2.77 ± 0.082 | -1.18 ± 0.086 |
| AAUGAGCAAUAUUACGUGCG | -2 ± 0.15 | -1.99 ± 0.3 |
| AAUGAGCAAUAUUACGUUGC | -4.6 ± 0.45 | -2.78 ± 0.29 |
| AAUUAGCAAUAUUACGAAUU | -2.7 ± 0.15 | -1.1 ± 0.13 |
| AAUUAGCAAUAUUACGAGUC | – | -1.9 ± 0.36 |
| AAUUAGCAAUAUUACGAUUG | -2.58 ± 0.2 | -1.14 ± 0.22 |
| AAUUAGCAAUAUUACGCAAC | -3 ± 0.4 | -1.93 ± 0.24 |
| AAUUAGCAAUAUUACGCAUA | -1.59 ± 0.15 | -2.07 ± 0.15 |
| AAUUAGCAAUAUUACGCCAU | -2.49 ± 0.19 | -1.04 ± 0.16 |
| AAUUAGCAAUAUUACGCGAC | -2.66 ± 0.21 | -1.61 ± 0.24 |
| AAUUAGCAAUAUUACGCGUC | -2.69 ± 0.16 | -1.1 ± 0.14 |
| AAUUAGCAAUAUUACGGCCG | -0.532 ± 0.18 | 0.571 ± 0.28 |
| AAUUAGCAAUAUUACGGCGU | -0.085 ± 0.076 | 0.168 ± 0.1 |
| AAUUAGCAAUAUUACGGGAU | -2.28 ± 0.22 | -1.37 ± 0.2 |
| AAUUAGCAAUAUUACGGGCA | -0.73 ± 0.14 | 0.186 ± 0.11 |
| AAUUAGCAAUAUUACGUCAA | -2.11 ± 0.17 | -0.791 ± 0.22 |
| AAUUAGCAAUAUUACGUCUG | -1.72 ± 0.15 | -0.251 ± 0.17 |

| Sequence | self-splicing fitness (ln) (30 °C) | self-splicing fitness (ln) (37 °C) |
| --- | --- | --- |
| AAUUAGCAAUAUUACGUUAA | -1.19 ± 0.12 | -0.801 ± 0.17 |
| AAUUAGCAAUAUUACGUUCU | -0.609 ± 0.077 | -0.522 ± 0.099 |
| AAUUAGCAAUAUUACGUUUA | -1.6 ± 0.12 | -0.975 ± 0.12 |
| ACAAAGCAAUAUUACGAAAA | -2.93 ± 0.25 | -2.42 ± 0.27 |
| ACAAAGCAAUAUUACGAAAG | -1.59 ± 0.12 | -1.32 ± 0.14 |
| ACAAAGCAAUAUUACGAAGA | -3.03 ± 0.42 | -0.86 ± 0.18 |
| ACAAAGCAAUAUUACGACUG | -0.48 ± 0.06 | -0.066 ± 0.09 |
| ACAAAGCAAUAUUACGAGAA | -2.54 ± 0.28 | -2.87 ± 0.35 |
| ACAAAGCAAUAUUACGAGAC | -3.61 ± 0.21 | -2.57 ± 0.2 |
| ACAAAGCAAUAUUACGAGUG | -1.37 ± 0.068 | -0.772 ± 0.081 |
| ACAAAGCAAUAUUACGCAGU | -3.46 ± 0.2 | -2.78 ± 0.21 |
| ACAAAGCAAUAUUACGCGAC | -2.02 ± 0.11 | -1.16 ± 0.12 |
| ACAAAGCAAUAUUACGCUAA | -2.51 ± 0.13 | -1.14 ± 0.086 |
| ACAAAGCAAUAUUACGCUGA | -2.65 ± 0.2 | -1.14 ± 0.15 |
| ACAAAGCAAUAUUACGGAAA | -2.26 ± 0.18 | -1.7 ± 0.21 |
| ACAAAGCAAUAUUACGGAAG | -2.47 ± 0.091 | -1.61 ± 0.11 |
| ACAAAGCAAUAUUACGGAGU | -3.79 ± 0.15 | -2.9 ± 0.17 |
| ACAAAGCAAUAUUACGGCAU | -0.565 ± 0.046 | 0.328 ± 0.058 |
| ACAAAGCAAUAUUACGGCCC | -0.546 ± 0.13 | -0.479 ± 0.2 |
| ACAAAGCAAUAUUACGGCUA | -0.14 ± 0.054 | -0.0776 ± 0.062 |
| ACAAAGCAAUAUUACGGGGA | -2.95 ± 0.14 | -1.05 ± 0.088 |
| ACAAAGCAAUAUUACGGUUA | -1.58 ± 0.092 | -0.719 ± 0.078 |
| ACAAAGCAAUAUUACGGUUU | -1.71 ± 0.076 | -0.493 ± 0.083 |
| ACAAAGCAAUAUUACGUACC | -1.13 ± 0.1 | -0.353 ± 0.12 |
